Measured values as given in patent US7572444B2, “Binding proteins specific for human matriptase” (Amgen Fremont Inc., priority 2004, dated 2009).

Target: T1, Biotinylated-MTSP1 (Homo sapiens, UniProt Q9Y5Y6)
T1 sequence (Q9Y5Y6 615-855 limits assumed): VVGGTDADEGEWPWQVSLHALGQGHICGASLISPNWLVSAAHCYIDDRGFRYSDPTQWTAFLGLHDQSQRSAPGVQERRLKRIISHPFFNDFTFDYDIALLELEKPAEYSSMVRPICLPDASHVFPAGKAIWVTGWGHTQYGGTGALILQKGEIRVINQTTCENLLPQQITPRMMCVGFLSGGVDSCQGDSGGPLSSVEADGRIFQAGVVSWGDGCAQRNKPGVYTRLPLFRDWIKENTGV
Test: Competition binding assay on sc95/96 coated plate
Details: 125 ng/ml Biotinylated-MTSP1; HAI-1 titrated from 2 μg/ml, sc95/96 from 10 μg/ml
From the text: This experiment was set-up to determine whether or not HAI-1 (the natural inhibitor of MT-SP1) would compete for binding to MT-SP1 with 95/96.
Bound MTSP was then detected with SA-pod.

B1: HAI-1: the natural inhibitor of MT-SP1 (protein, UniProt O43278 36-529, looked up)
Kunitz-type protease …: GPPPAPPGLPAGADCLNSFTAGVPGFVLDTNASVSNGATFLESPTVRRGWDCVRACCTTQNCNLALVELQPDRGEDAIAACFLINCLYEQNFVCKFAPREGFINYLTREVYRSYRQLRTQGFGGSGIPKAWAGIDLKVQPQEPLVLKDVENTDWRLLRGDTDVRVERKDPNQVELWGLKEGTYLFQLTVTSSDHPEDTANVTVTVLSTKQTEDYCLASNKVGRCRGSFPRWYYDPTEQICKSFVYGGCLGNKNNYLREEECILACRGVQGGPLRGSSGAQATFPQGPSMERRHPVCSGTCQPTQFRCSNGCCIDSFLECDDTPNCPDASDEAACEKYTSGFDELQRIHFPSDKGHCVDLPDTGLCKESIPRWYYNPFSEHCARFTYGGCYGNKNNFEEEQQCLESCRGISKKDVFGLRREIPIPSTGSVEMAVAVFLVICIVVVVAILGYCFFKNQRKDFHGHHHHPPPTPASSTVSTTEDTEHLVYNHTTRPL
- competition for binding of MT-SP1 to sc95/96 coated plate: prevented the binding of MT-SP1 to the plate
